Experimental data taken from article PMC12717047 (Nature Communications, 2025).

How the values were obtained:
Assay in all cases: flow cytometry on cells
[1] = target: T1, KRAS^WT p5 peptide presented on HLA-A*02 (p5^WT/A*02) (Homo sapiens, HLA-A*02:01, strain, biotin on the AviTag (BirA co-expressed))
T1 chain 1: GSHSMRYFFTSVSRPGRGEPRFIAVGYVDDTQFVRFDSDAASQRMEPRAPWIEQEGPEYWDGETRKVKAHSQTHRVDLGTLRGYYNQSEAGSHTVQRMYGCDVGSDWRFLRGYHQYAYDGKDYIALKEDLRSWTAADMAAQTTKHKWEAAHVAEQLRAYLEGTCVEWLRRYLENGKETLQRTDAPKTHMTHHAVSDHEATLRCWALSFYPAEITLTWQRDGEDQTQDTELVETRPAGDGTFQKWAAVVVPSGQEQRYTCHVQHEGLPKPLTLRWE
T1 chain 2: not shown
T1 chain 3: KLVVVGAGGV

[2] = target: T2, KRAS^WT p7 peptide presented on HLA-A*03 (p7^WT/A*03) (Homo sapiens, HLA-A*03:01, strain, biotin on the AviTag (BirA co-expressed))
T2 chain 1: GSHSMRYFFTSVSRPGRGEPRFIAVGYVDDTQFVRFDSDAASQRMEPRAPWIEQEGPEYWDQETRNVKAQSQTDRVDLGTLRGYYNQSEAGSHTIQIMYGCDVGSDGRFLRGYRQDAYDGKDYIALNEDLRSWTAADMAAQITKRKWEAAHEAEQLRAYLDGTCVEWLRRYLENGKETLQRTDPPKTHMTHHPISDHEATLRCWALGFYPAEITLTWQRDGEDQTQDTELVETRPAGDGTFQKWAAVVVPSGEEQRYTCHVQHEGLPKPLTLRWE
T2 chain 2: not shown
T2 chain 3: VVVGAGGVGK

[3] = target: KRAS^WT p7 peptide presented on HLA-A*11 (p7^WT/A*11) (Homo sapiens, HLA-A*11:01, strain, biotin on the AviTag (BirA co-expressed))

binding result [1]: no binding
binding result [2]: no binding
binding result [3]: no binding
B1: yeast-displayed scFv R302 (scFv, V domains shown)
VH: EVQLLESGGGVVQPGRSLRLSCAASGFTFSSYGMHWVRQAPGKGLEWVAVISYDGSNKYYADSVKGRFTISRDNSKNTLYLQMNSLRAEDTAVYYCLYGGNSYGMDVWGQGTMVTVFN
VL: DIVMTQSPATLSLSPGERATLSCRASQSLSSSFLAWYQQKPGQAPRLLIYGASSRATGIPDRFSGSGSGTDFTLTISRLEPEDFAVYYCQQSESALTFGGGTKVEIK
